Test system: LPS-induced release of endogenous TNFα from human THP-1 macrophage cells
Test: ELISA-based TNFα release assay, IC50 determination (Example 12)
Assay type: cell-based
Settings: titration 80.00 to 0.08 μg/ml final; LPS 50 ng/ml, 3 hours
Description: Expanding the functional analyses, ELISA-based TNFα release assays were performed to determine the half maximal inhibitory concentration (IC50) for the purified antibody 4H8-E3 of the invention on LPS-induced release of endogenous TNFα from human THP-1 macrophage cells.
In brief, on day 1, Nunc black MaxiSorp® 96-well plates (Thermo Fisher Scientific, USA) were coated overnight with 100 μl per well of mouse anti-human TNFα capture antibody (provided as part of the DuoSet ELISA kit) at 4 μg/ml TBS at 4° C. On day 2, the capture antibody solution was removed and MaxiSorp® plates were blocked with 300 μl per well of TBS, 1% BSA at room temperature for 3 hours. […] Using an infinite M1000 PRO (Tecan Group, Switzerland) microplate reader, the fluorescence of each well was collected at an excitation wavelength of 435 nm and an emission wavelength of 555 nm.

B1: 4H8-E3: Mouse IgM monoclonal antibody against the human iRhom2 juxtamembrane domain adjacent to TMD1; HC VD SEQ ID NO 33, LC VD SEQ ID NO 40 (antibody, V domains shown)
VH: EVQLQQSGPELVKPGASVKISCKASGYTFTDYYMNWVKQSHGKSLEWIGDINPNNGGTSYNQKFKGKATLTVDKSSNTAYMEFRSLTSEDSAVYYCARRGYYGVDYWGQGTTLTVSS
VL: NIVMTQSPKSMSMSVGERVTLNCKASENVGTYVSWYQQKPEQSPKLLIFGASNRYTGVPDRFIGSGFATDFTLTISSVQAEDLADYHCGQSYSYPYTFGGGTKLEIK
modifications: IgM constant regions; antibody sequence
In the case of B1, the “inhibition of TNFα release from THP-1 cells on titration” value is reported as “concentration-dependent inhibition”.
